# Literature values, collected in article PMC5603210.
# pKd: −log10 of the molar value.
# Target: von Willebrand factor (Homo sapiens) (UniProt P04275)
substance,measurement,value
Factor VIII (from UniProt P00451),pKd,9.30
